Target: the molecule itself
Assay: native gel or EMSA; 4-16% Bis-Tris native gel, Coomassie; 8.125 uM RRM alone or with NTD(1-77) at 0.5:1, 1:1 and 2:1 (NTD:RRM); incubated 10 min at 25 C in 300 mM NaCl, 40 mM HEPES pH 6.5, 4 mM DTT; full shift only at 2:1; also repeated with added RNA

B1: TDP-43(102-260), tandem RNA recognition motifs RRM1 and RRM2 of TAR DNA-binding Protein 43 kilodaltons (domain or fragment, human)
chain: KTSDLIVLGLPWKTTEQDLKEYFSTFGEVLMVQVKKDLKTGHSKGFGFVRFTEYETQVKVMSQRHMIDGRWCDCKLPNSKQSQDEPLRSRKVFVGRCTEDMTEDELREFFSQYGDVMDVFIPKPFRAFAFVTFADDQIAQSLCGEDLIIKGISVHISNA
notes: 15N-labelled (M9 medium with 15NH4Cl) in the CPMG NMR; also called RRMs; RRM12; source: E. coli BL21(DE3), purified (His-Trap, Superdex size exclusion)
  stoichiometry N: 2

— article PMC12442443, “Identifying interactions between TDP‐43's N‐terminal and RNA‐binding domains” (Protein Science : A Publication of the Protein Society, 2024)
